{"source": "patent US20170158747A1", "about": "(Novartis, published 2017)", "binders": {"B1": {"name": "IgGIL10M13 (antibody)", "heavy": "not shown", "light": "DIQMTQSPSTLSASVGDRVTITCKAQLSSPGQGTQSENSCTHFPGNLPNMLRDLRDAFSRVKTFFQMKDQLDNLLLKESLLEDFKGYLGCQALSEMIQFYLEEVMPQAENQDPDIKAHVNSLGENLKTLRLRLRRCHRFLPCENGGGSGGKSKAVEQVKNAFNKLQEKGIYKAMSEFDIFINYIEAYMTMKIRNVGYMHWYQQKPGKAPKLLIYDTSKLASGVPSRFSGSGSGTAFTLTISSLQPDDFATYYCFQGSGYPFTFGGGTKLEIKRTVAAPSVFIFPPSDEQLKSGTASVVCLLNNFYPREAKVQWKVDNALQSGNSQESVTEQDSKDSTYSLSSTLTLSKADYEKHKVYACEVTHQGLSSPVTKSFNRGEC"}}, "assay_in_all_cases": "cell-based or functional assay", "key": {"[1]": {"molecular_target": "T1, mouse IL10 receptor on mouse cells (whole blood, colon) (mouse, UniProt Q61727 17-575; Q61190 20-349)", "T1 sequence (looked up) 1": "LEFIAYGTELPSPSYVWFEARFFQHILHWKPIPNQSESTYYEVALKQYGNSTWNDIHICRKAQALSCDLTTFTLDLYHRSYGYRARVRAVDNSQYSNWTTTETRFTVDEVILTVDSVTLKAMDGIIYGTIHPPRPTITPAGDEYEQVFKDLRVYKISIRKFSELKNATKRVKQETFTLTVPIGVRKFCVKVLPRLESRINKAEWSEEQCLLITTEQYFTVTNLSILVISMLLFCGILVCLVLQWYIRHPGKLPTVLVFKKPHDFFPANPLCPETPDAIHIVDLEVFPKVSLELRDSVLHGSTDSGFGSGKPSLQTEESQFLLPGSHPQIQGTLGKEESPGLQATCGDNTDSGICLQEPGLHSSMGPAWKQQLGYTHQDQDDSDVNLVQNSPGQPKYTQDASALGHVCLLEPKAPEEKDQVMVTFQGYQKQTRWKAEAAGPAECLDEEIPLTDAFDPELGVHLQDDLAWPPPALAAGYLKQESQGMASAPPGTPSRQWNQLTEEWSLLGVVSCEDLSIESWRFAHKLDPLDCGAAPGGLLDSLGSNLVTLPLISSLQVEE", "T1 sequence (looked up) 2": "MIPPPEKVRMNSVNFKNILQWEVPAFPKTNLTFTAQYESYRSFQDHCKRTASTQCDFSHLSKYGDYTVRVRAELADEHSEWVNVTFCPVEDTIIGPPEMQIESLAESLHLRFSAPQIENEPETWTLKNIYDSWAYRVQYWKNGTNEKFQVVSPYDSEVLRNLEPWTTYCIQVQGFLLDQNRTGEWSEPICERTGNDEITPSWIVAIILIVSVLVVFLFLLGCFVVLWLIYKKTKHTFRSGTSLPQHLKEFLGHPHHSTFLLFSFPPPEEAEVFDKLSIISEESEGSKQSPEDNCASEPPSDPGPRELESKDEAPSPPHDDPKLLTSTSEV"}, "[2]": {"molecular_target": "T2, cynomolgus monkey IL10 receptor on cynomolgus whole blood cells (cynomolgus monkey, UniProt A0A2K5WJ66 22-576; A0A7N9D6W2 20-323)", "T2 sequence 1": "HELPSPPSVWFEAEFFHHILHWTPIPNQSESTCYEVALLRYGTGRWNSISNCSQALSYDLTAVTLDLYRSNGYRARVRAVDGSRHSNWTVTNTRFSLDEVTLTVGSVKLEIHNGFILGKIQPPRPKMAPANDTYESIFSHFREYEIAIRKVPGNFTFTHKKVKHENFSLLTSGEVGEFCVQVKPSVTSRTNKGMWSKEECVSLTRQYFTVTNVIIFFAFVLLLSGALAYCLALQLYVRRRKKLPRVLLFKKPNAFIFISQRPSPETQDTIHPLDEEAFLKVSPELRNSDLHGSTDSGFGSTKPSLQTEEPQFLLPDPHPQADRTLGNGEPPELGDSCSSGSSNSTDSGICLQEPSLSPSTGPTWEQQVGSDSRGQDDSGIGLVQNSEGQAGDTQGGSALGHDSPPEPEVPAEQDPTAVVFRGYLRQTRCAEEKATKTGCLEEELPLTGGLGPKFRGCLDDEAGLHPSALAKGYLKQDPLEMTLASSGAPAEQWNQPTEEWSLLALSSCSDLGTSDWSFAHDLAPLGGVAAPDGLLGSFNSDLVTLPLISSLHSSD", "T2 sequence 2": "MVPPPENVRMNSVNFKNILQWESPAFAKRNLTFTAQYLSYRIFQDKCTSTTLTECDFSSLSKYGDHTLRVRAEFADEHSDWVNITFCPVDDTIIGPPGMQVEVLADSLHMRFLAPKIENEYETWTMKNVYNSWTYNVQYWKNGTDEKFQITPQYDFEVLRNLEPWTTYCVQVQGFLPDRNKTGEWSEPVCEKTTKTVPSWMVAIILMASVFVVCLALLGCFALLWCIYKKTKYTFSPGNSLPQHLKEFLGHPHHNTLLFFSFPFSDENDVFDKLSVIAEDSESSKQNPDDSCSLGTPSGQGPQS"}, "[3]": {"molecular_target": "T3, human IL10 receptor (IL10R1/R2 receptor complex) on human whole blood cells (human, UniProt Q13651 22-578; Q08334 20-325)", "T3 sequence (looked up) 1": "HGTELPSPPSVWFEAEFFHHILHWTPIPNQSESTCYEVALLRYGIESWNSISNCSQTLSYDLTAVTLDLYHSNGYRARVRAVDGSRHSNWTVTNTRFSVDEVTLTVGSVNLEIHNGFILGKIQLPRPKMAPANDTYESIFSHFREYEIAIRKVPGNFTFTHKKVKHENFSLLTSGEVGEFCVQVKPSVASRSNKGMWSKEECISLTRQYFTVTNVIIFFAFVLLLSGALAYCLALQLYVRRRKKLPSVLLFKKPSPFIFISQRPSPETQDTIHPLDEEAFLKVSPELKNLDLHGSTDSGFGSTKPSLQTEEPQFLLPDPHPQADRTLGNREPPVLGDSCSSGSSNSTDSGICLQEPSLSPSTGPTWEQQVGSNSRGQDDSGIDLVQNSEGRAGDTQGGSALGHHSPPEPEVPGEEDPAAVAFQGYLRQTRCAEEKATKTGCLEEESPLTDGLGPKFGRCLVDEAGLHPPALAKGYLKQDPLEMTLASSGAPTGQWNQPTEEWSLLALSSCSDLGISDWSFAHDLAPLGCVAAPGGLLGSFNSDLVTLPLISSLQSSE", "T3 sequence (looked up) 2": "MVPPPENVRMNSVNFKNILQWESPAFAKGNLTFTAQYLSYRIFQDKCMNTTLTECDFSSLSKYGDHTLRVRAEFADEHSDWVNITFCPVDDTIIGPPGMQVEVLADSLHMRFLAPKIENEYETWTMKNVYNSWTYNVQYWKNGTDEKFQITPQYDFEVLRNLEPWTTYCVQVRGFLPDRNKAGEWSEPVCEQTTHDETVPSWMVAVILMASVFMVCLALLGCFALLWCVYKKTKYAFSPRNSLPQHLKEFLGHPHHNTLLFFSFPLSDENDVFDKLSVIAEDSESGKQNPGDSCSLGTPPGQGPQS"}}}
{"binder": "B1", "values": [{"measurement": "IC50, inhibition of LPS-induced TNFα production, ex vivo mouse whole blood", "setting": "[1]", "result": 12, "unit": "pM"}, {"measurement": "IC50, inhibition of LPS-induced TNFα production, ex vivo cynomolgus whole blood", "setting": "[2]", "result": 6.67, "unit": "pM"}, {"measurement": "IC50, inhibition of LPS-induced TNFα production, ex vivo human whole blood", "setting": "[3]", "result": 25.2, "unit": "pM"}]}
